Experimental data: article PMC3689916, “Vaspin inhibits kallikrein 7 by serpin mechanism” (Cellular and Molecular Life Sciences: CMLS, 2013)

Target: T1, recombinant human vaspin (visceral adipose tissue-derived serpin; serpinA12), 10×His fusion protein (human, UniProt Q8IW75 22-414)
T1 construct: the crystal structure model covers residues 37-366 and 378-414 (chain A); The natural signal peptide is probably absent from the construct; also called native human vaspin; 10×His–vaspin
T1 sequence: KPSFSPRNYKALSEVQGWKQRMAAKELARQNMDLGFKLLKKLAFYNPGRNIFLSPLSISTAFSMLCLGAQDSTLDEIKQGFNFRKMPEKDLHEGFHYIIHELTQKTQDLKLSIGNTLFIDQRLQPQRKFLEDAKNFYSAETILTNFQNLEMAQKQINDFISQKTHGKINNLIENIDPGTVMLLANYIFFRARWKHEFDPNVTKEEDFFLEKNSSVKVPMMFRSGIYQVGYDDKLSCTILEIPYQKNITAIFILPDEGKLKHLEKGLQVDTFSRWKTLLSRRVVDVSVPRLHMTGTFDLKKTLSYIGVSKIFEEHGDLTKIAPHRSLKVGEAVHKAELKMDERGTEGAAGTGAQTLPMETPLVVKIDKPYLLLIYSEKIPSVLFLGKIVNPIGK
Assay: protease activity assay, association rate under pseudo-first-order conditions (residual activity, fluorogenic peptide substrate); tenfold molar excess of vaspin over hK7; remaining hK7 activity against time; k ass = k obs/[I] from a linear fit of ln activity against time
Conditions: both partners purified

kon: 7300 M⁻¹ s⁻¹
B1: recombinant human kallikrein 7 (hK7) (enzyme, UniProt P49862 23-253, looked up)
chain: IIDGAPCARGSHPWQVALLSGNQLHCGGVLVNERWVLTAAHCKMNEYTVHLGSDTLGDRRAQRIKASKSFRHPGYSTQTHVNDLMLVKLNSQARLSSMVKKVRLPSRCEPPGTTCTVSGWGTTTSPDVTFPSDLMCVDVKLISPQDCTKVYKDLLENSMLCAGIPDSKKNACNGDSGGPLVCRGTLQGLVSWGTFPCGQPNDPGVYTQVCKFTKWINDTMKKHR
notes: source: bought: R&D Systems
